Measurements: PMC8387239, “Structural and functional characterization of the intracellular filament-forming nitrite oxidoreductase multiprotein complex” (Nature Microbiology, 2021)
Each block holds one molecule with its values, some of them ahead of it.

Columns and labels:
[1] = biological target: T1, anammoxosomal tubules (NXR A, B, C and T subunits) (Candidatus Kuenenia stuttgartensis, UniProt Q1PZD8); experiment: spectrophotometric, ferricyanide reduction at […] nm; type: biochemical; conditions: 2 mM sodium nitrite; 800 µM ferricyanide; 50 mM KPi, 150 mM NaCl, pH 7.25; 35 °C; without dodecyl maltoside
T1 construct: gene narG; native tubules purified from K. stuttgartiensis cells by size exclusion and sucrose density gradient; with nitrite oxidoreductase subunit B, iron-sulfur subunit (NarH-like); nitrite oxidoreductase subunit C, haem b-containing subunit; nitrite oxidoreductase tubule-inducing subunit T, monohaem cytochrome c
T1 sequence (Q1PZD5 1-410 partner, one chain of several): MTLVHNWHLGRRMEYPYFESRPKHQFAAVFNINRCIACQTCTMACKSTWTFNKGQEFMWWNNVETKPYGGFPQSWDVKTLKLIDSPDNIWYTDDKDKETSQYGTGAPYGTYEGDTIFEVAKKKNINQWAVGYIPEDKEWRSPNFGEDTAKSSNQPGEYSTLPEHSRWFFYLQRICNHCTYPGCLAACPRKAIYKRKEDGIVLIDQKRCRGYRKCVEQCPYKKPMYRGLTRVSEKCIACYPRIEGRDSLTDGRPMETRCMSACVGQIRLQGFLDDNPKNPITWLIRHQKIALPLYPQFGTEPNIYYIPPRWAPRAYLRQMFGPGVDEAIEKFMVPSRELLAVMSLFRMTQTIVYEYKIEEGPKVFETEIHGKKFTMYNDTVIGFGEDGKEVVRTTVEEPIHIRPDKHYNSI
T1 sequence (Q1PZD4 29-322 partner, one chain of several): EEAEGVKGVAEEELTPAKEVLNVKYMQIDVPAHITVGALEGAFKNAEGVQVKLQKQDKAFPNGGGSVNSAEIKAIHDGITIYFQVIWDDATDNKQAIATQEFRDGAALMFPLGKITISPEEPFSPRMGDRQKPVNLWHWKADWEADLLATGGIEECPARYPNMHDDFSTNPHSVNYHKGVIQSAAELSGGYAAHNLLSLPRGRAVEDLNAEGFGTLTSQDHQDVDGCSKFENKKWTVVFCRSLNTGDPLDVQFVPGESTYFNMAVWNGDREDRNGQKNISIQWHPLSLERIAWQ
T1 sequence (A0A2C9CDL6 21-180 partner, one chain of several): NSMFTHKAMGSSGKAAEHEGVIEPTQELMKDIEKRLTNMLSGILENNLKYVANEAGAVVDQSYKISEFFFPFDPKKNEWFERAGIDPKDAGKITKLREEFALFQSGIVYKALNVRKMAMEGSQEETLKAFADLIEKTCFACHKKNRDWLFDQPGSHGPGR

[2] = biological target: NXR-T (Kustd1705), recombinant, as used for analytical ultracentrifugation (tagged version not stated) (Kuenenia stuttgartiensis); experiment: AUC; sedimentation velocity and sedimentation equilibrium; 25 mM HEPES/KOH pH 7.5, 25 mM KCl; 25,000 or 30,000 r.p.m., 24 h, 20 °C; scans at 415 nm
[3] = biological target: NXR-T (Kustd1705), tubule-inducing NXR subunit, recombinant, N-terminal His-tag cleaved (Kuenenia stuttgartiensis); experiment: cryo-EM structure; helical reconstruction of tubules reconstituted from KsNXR-ABC and Kustd1705, 5.8 Å after density modification
[4] = biological target: Broful_01488, NXR-T homologue from Brocadia fulgida, recombinant, N-terminal His-tag cleaved (Brocadia fulgida); experiment: crystal structure; Broful_01488 after cleavage of the N-terminal His-tag; 0.02 M LiCl, 0.02 M glycine pH 10.0, 33% PEG 1000, 0.05 M MgCl2; 4.0-4.5 Å, partial model
purified protein [5] = substrate: O=NO; experiment: purified protein; type: biochemical, Candidatus Kuenenia stuttgartensis; conditions: 800 µM ferricyanide as electron acceptor, 50 mM KPi, 150 mM NaCl, pH 7.25, 35 °C
purified protein [6] = substrate: O=[N+]([O-])O; experiment: purified protein; type: biochemical, Candidatus Kuenenia stuttgartensis; conditions: reduced methyl viologen as electron donor, 50 mM KPi, pH 7.2, 35 °C, anaerobic

Molecule: O=NO [nitrite]
- spectrophotometric, ferricyanide reduction at 420 nm [1]: can be disassembled by adding the detergent dodecyl maltoside, show nitrite oxidation activity

B1: KsNXR-ABC (Candidatus Kuenenia stuttgartensis) (protein)
chain: FRLLKPAVVVDNPLDTYPDRRWESVYRDQYQYDRTFTYCCSPNDTHACRIRAFVRNNVMMRVEQNYDHQNYSDLYGNKATRNWNPRMCLKGYTFHRRVYGPYRLRYPLIRKGWKRWADDGFPELTPENKTKYMFDNRGNDELLRASWDEAFTYASKGIIHITKKYSGPEGAQKLIDQGYPKEMVDRMQGAGTRTFKGRGGMGLLGVIGKYGMYRFNNCLAIVDAHNRGVGPDQALGGRNWSNYTWHGDQAPGHPFSHGLQTSDVDMNDVRFSKLLIQTGKNLIENKMPEAHWVTEVMERGGKIVVITPEYSPSAQKADYWIPIRNNTDTALFLGITKILIDNKWYDADYVKKFTDFPLLIRTDTLKRVSPKDIIPNYKLQDISDGPSYHIQGLKDEQREIIGDFVVWDAKSKGPKAITRDDVGETLVKKGIDPVLEGSFKLKTIDGKEIEVMTLLEMYKIHLRDYDIDSVVSMTNSPKDLIERLAKDIATIKPVAIHYGEGVNHYFHATLMNRSYYLPVMLTGNVGYFGSGSHTWAGNYKAGNFQASKWSGPGFYGWVAEDVFKPNLDPYASAKDLNIKGRALDEEVAYWNHSERPLIVNTPKYGRKVFTGKTHMPSPTKVLWFTNVNLINNAKHVYQMLKNVNPNIEQIMSTDIEITGSIEYADFAFPANSWVEFQEFEITNSCSNPFIQIWGKTGITPVYESKDDVKILAGMASKLGELLRDKRFEDNWKFAIEGRASVYINRLLDGSTTMKGYTCEDILNGKYGEPGVAMLLFRTYPRHPFWEQVHESLPFYTPTGRLQAYNDEPEIIEYGENFIVHREGPEATPYLPNAIVSTNPYIRPDDYGIPENAEYWEDRTVRNIKKSWEETKKTKNFLWEKGYHFYCVTPKSRHTVHSQWAVTDWNFIWNNNFGDPYRMDKRMPGVGEHQIHIHPQAARDLGIEDGDYVYVDANPADRPYEGWKPNDSFYKVSRLMLRAKYNPAYPYNCTMMKHSAWISSDKTVQAHETRPDGRALSPSGYQSSFRYGSQQSITRDWSMPMHQLDSLFHKAKIGMKFIFGFEADNHCINTVPKETLVKITKAENGGMGGKGVWDPVKTGYTAGNENDFMKKFLNGELIKVDA
notes: untagged; with nitrite oxidoreductase subunit B, iron-sulfur subunit (NarH-like); nitrite oxidoreductase subunit C, haem b-containing subunit
- Km (purified protein [5]): 22 ± 5 µM
- Km (purified protein [6]): 14 ± 1 µM

Next, values leading:

- stoichiometry N [2]: 2
Molecule: NXR-T (Kustd1705), recombinant, as used for analytical ultracentrifugation (tagged version not stated) (natural protein)

- stoichiometry N [3]: 2
Molecule: NXR-T (Kustd1705), tubule-inducing NXR subunit, recombinant, N-terminal His-tag cleaved (natural protein)

- stoichiometry N [4]: 2
Molecule: Broful_01488, NXR-T homologue from Brocadia fulgida, recombinant, N-terminal His-tag cleaved (natural protein)
